Test results as given in paper PMC4756856 (Nucleic Acids Research, 2016).

Target: the molecule itself
Test: SEC-MALS

B1: TyrRSΔE2–4′ (TyrRSΔE2–4 splice variant of human tyrosyl-tRNA synthetase without the flexible linker aa343–360) (natural protein, UniProt P54577 1-528, looked up)
chain: MGDAPSPEEKLHLITRNLQALDEEYLKVDAQFGGIDQRKIFTFAEKYLPALGYSKRVHLMNPMVPGLTGSKMSSSEEESKIDLLDRKEDVKKKLKKAFCEPGNVENNGVLSFIKHVLFPLKSEFVILRDEKWGGNKTYTAYVDLEKDFAAEVVHPGDLKNSVEVALNKLLDPIREKFNTPALKKLASAAYPEEVIPSRLDIRVGKIITVEKHPDADSLYVEKIDVGEAEPRTVVSGLVQFVPKEELQDRLVVVLCNLKPQKMRGVESQGMLLCASIEGINRQVEPLDPPAGSAPGEHVFVKGYEKGQPDEELKPKKKVFEKLQADFKISEECIAQWKQTNFMTKLGSISCKSLKGGNIS
stoichiometry N: 2
